Measured values from FireProtDB (doi:10.1002/prot.340090203).
Values joined by “and” are separate entries in the source; they are usually repeats but may differ in a detail not shown here. Equal entries are not always repeated.

B1: Tryptophan synthase alpha chain, P0A877 (parent)
chain: MERYESLFAQLKERKEGAFVPFVTLGDPGIEQSLKIIDTLIEAGADALELGIPFSDPLADGPTIQNATLRAFAAGVTPAQCFEMLALIRQKHPTIPIGLLMYANLVFNKGIDEFYAQCEKVGVDSVLVADVPVEESAPFRQAALRHNVAPIFICPPNADDDLLRQIASYGRGYTYLLSRAGVTGAENRAALPLNHLVAKLKEYNAAPPLQGFGISAPDQVKAAIDAGAAGAISGSAIVKIIEQHINEPEKMLAALKVFVQPMKAATRS

Variants of: B1
Conditions: Escherichia coli (strain K12), reversible: yes, structure 1WQ5, whole UniProt chain shown
[1] = pH 9, 54.1 °C, Thermal, DSC, Sodium tetraborate 1 mM, EDTA 1 mM
[2] = pH 7, 25 °C, GdnHCl, CD, Potassium phosphate 10 mM
[3] = pH 7, 25 °C, GdnHCl, CD, Potassium phosphate 10 mM, transition: 3
[4] = pH 9, Thermal, DSC, Sodium tetraborate 1 mM

Row | Variant | ddG of mutation (higher = less stable) [1] [kcal/mol] | heat capacity change of unfolding [1] [kcal/mol/K] | ddG of mutation (higher = less stable) [2] [kcal/mol] | unfolding free energy [2] [kcal/mol] | ddG of mutation (higher = less stable) [3] [kcal/mol] | unfolding free energy [3] | Tm [4] [°C] | change of melting temperature, mutant - wild type (higher = more stable) [4] [°C] | heat capacity change of unfolding [4] [kcal/mol/K] | unfolding enthalpy (calorimetric) [4] [kcal/mol]
1 | P62A | 0.52 | 4.9 | – | – | – | – | – | – | – | –
2 | P207A | – | – | 1.8 | 7 | 2.2 | 2.4 kcal/mol | 47.4 | -6.7 | 4.9 | 95
3 | P132G | 0.78 | 5.1 | 0.6 | 8.2 | – | 3.6 kcal/mol and 4.6 kcal/mol | 51.8 | -2.3 | 5.1 | 117
4 | P132A | 0.92 | 4.8 | – | – | – | – | 51.5 | -2.6 | 4.8 | 121
5 | P96A | 2 | 3.6 | – | – | – | – | 47.8 | -6.3 | 3.6 | 113
6 | P28G | – | – | 1.6 | 7.2 | – | 2.3 kcal/mol and 4.9 kcal/mol | – | – | – | –
7 | P28A | – | – | 2.5 | 6.3 | – | 2.2 kcal/mol and 4.1 kcal/mol | – | – | – | –
8 | P57A | 0.04 | 4.7 | – | – | – | – | 54 | -0.1 | 4.7 | 121
